We go through 9 molecules from PMC3134637.

Read-outs that look alike come from different tables or passages of the source.

What all share (experiment): HiTS-FLIP
Data set [1] has as its target T1, 6xHis-mOrange-Gcn4p (Saccharomyces cerevisiae, UniProt P03069 1-281).
Data set [2] concerns the target T1, 6xHis-mOrange-Gcn4p. This is another data set of the same source.
For data set [3], the target named is T1, 6xHis-mOrange-Gcn4p. The source holds these as a separate data set.
Data set [4] deals with T1, 6xHis-mOrange-Gcn4p. This is another data set of the same source.
Data set [5] has as its target T1, 6xHis-mOrange-Gcn4p. The source holds these as a separate data set.
The target in data set [6] is T1, 6xHis-mOrange-Gcn4p. This is another data set of the same source.

T1 sequence (P03069 whole entry): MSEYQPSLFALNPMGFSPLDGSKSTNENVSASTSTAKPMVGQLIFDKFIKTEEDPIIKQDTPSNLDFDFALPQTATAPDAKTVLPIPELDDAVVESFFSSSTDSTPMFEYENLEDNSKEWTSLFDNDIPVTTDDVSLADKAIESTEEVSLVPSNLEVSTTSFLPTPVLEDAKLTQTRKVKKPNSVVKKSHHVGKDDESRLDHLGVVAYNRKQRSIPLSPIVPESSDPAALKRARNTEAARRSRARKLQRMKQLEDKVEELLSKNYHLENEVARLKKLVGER

B1: 11mer flanks G,A (dsDNA)
DNA 1: GATGACTCATA
DNA 2: TATGAGTCATC
Regarding B1, in the data set with 6xHis-mOrange-Gcn4p [1], the binding result is listed as “binds”.

B2: consensus 7mer TGACTCA (dsDNA)
DNA 1: TGACTCA
DNA 2: TGAGTCA
As for B2, in the data set with 6xHis-mOrange-Gcn4p [2], the binding result was “binds”.

B3: 10mer TATGACTCAT (dsDNA)
DNA 1: TATGACTCAT
DNA 2: ATGAGTCATA
For the molecule B3, the binding result with 6xHis-mOrange-Gcn4p [3] was “binds”.

B4: 11mer flanks T,C (dsDNA)
DNA 1: TATGACTCATC
DNA 2: GATGAGTCATA
Regarding B4, the binding result with 6xHis-mOrange-Gcn4p [1] is on record as “binds”.

B5: 10mer ATGACTCATA (dsDNA)
DNA 1: ATGACTCATA
DNA 2: TATGAGTCAT
B5: in the data set with 6xHis-mOrange-Gcn4p [3], the binding result is given as “binds”.

B6: 11mer consensus TATGACTCATA (T,A flanks) (dsDNA)
DNA 1: TATGACTCATA
DNA 2: TATGAGTCATA
For the molecule B6, the binding result in the data set with 6xHis-mOrange-Gcn4p [4] is “binds”.

B7: adjacent half-sites ATGACGTCAT (dsDNA)
DNA 1: ATGACGTCAT
DNA 2: ATGACGTCAT
Turning to B7, the binding result with 6xHis-mOrange-Gcn4p [5] is “binds”.

B8: 11mer flanks C,A (dsDNA)
DNA 1: CATGACTCATA
DNA 2: TATGAGTCATG
With B8, the binding result with 6xHis-mOrange-Gcn4p [1] is given as “binds”.

B9: 9mer ATGACTCAT (dsDNA)
DNA 1: ATGACTCAT
DNA 2: ATGAGTCAT
As for B9, in the data set with 6xHis-mOrange-Gcn4p [6], the binding result was “binds”.
